Results taken from PMC4712191.

T1: BmExd1 full-length (UniProt H9IUR0 1-315)
T1 sequence: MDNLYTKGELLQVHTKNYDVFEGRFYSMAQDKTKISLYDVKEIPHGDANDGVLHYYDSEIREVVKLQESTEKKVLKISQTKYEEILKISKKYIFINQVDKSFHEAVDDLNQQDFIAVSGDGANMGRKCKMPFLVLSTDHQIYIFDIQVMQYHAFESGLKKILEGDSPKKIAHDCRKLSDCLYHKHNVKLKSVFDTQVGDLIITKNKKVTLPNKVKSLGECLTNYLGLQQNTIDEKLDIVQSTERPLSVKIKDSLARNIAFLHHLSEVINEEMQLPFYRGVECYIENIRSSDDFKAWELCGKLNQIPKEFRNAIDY


What was measured:
[1] = target: recombinant full-length BmExd1 (Bombyx mori); assay: AUC
BmExd1 full-length = target: T1, BmExd1 full-length; assay: ITC

| Molecule | stoichiometry N [1] | Kd (BmExd1 full-length) |
| --- | --- | --- |
| recombinant full-length BmExd1 (natural protein) | 2 |  |
| GGGGUAUUCUUUAAUUAUUUC (ssRNA) [ITC RNA (21 nt)] |  | 27 µM |
